Patent US20260258153A1 (WISTAR INSTITUTE OF ANATOMY AND BIOLOGY, published 2026)

Biological target: carbonic anhydrase 9 (CA9) (UniProt Q16790 38-459)
Assay: cell-based or functional assay

EC50 (pM), cell line 293T-CA9: 13.2 pM | EC50 (pM), cell line 786-O: 82.5 pM | EC50 (pM), cell line A-498: 21.4 pM | EC50 (pM), cell line ACHN-CA9: 38.7 pM | EC50 (pM), cell line SKRC-52: 1.5 pM
B1: BTE (canonical CA9 x CD3 bispecific T cell engager; G37_DBiTE, Non-HLV) (bispecific antibody)
chain: QSVLTQPPSVSGAPGQRVTISCTGSSSNIGAGYDVHWYQHLPGTAPKLLIYGNSNRPSGVPDRFSGSKSGTSASLAITGLQAEDETDYFCQSYDSSLSAWVFGGGTKVTVLGGGGSGGGGSGGGGSQVQLVQSGGGVVQPGGSLRLSCAASGFPFSSYAMSWVRQAPGKGLEWVSAISANGGTTYYADSVKGRFTISRDNSKNTLYLQMNSLRAEDTAVYYCANNGNYRGAFDIWGQGTMVTVSSGGGGSEVQLVESGGGLVQPGGSLRLSCAASGYSFTGYTMNWVRQAPGKGLEWVALINPYKGVSTYNQKFKDRFTISVDKSKNTAYLQMNSLRAEDTAVYYCARSGYYGDSDWYFDVWGQGTLVTVSSGGGGSGGGGSGGGGSDIQMTQSPSSLSASVGDRVTITCRASQDIRNYLNWYQQKPGKAPKLLIYYTSRLESGVPSRFSGSGSGTDYTLTISSLQPEDFATYYCQQGNTLPWTFGQGTKVEIKSSHHHHHH
